Usually Km stands for the substrate concentration at which the rate is half of its maximum. One may read the kcat as the number of substrate molecules converted per active site and unit of time at saturation.

This passage reports Km, kcat and kcat/Km results from ChEMBL document CHEMBL3352481, “Synthesis of {[5-(adenin-9-yl)-2-furyl]methoxy}methyl phosphonic acid and evaluations against human adenylate kinases” (Bioorg Med Chem Lett, 2014).

Common to all, as to settings: Homo sapiens
Series [1] concerns Nc1ncnc2c1ncn2-c1ccc(CO)o1. In words: (§1) Activity of recombinant AK2 (unknown origin) assessed as ADP formation by spectroscopic pyruvate kinase/lactate dehydrogenase coupled assay.
Series [2] deals with Nc1ncnc2c1ncn2[C@H]1C[C@H](O)[C@@H](COP(=O)(O)O)O1. The description is as §1.
For series [3], the system named is Nc1ncnc2c1ncn2CCOCP(=O)(O)O. The description is as §1.
Series [4] concerns C[C@H](Cn1cnc2c(N)ncnc21)OCP(=O)(O)O. Described as §1.
Series [5] relates to Nc1ncnc2c1ncn2-c1ccc(COCP(=O)(O)O)o1. The series is described as §1.
Series [6] relates to Nc1ncnc2c1ncn2[C@@H]1O[C@H](COP(=O)(O)O)[C@@H](O)[C@H]1O. The description is as §1.
The test system of series [7] is Nc1ncnc2c1ncn2-c1ccc(CO)o1. In words: (§2) Ratio of Kcat to Km for recombinant AK2 (unknown origin).
In series [8] the test system is Nc1ncnc2c1ncn2[C@H]1C[C@H](O)[C@@H](COP(=O)(O)O)O1. Described as §2.
In series [9] the test system is Nc1ncnc2c1ncn2CCOCP(=O)(O)O. Described as §2.
Series [10] has as its system C[C@H](Cn1cnc2c(N)ncnc21)OCP(=O)(O)O. Described as §2.
Series [11] has as its system Nc1ncnc2c1ncn2-c1ccc(COCP(=O)(O)O)o1. Described as §2.
The subject of series [12] is Nc1ncnc2c1ncn2[C@@H]1O[C@H](COP(=O)(O)O)[C@@H](O)[C@H]1O. The description is as §2.

Regarding “Adenylate kinase 2, mitochondrial (Homo sapiens) (from UniProt P54819)”, the Michaelis-Menten constant (Km) entry was “Not Active” in series [1]; 210 µM in [2]; 6000 µM in [3]; 3000 µM in series [4]; 420 µM in series [5]; 380 µM in series [6]. Further, the turnover number (kcat) entry in series [1] is “Not Active”; in series [2] it was 110 s⁻¹; in series [3], 1.5 s⁻¹; in [4] it was 2.4 s⁻¹; in series [5], 1.06 s⁻¹; in series [6] it was 80 s⁻¹. Further, the kcat/Km entry was “Not Active” in series [7]; 0.5 ×10⁶ /M/s in series [8]; 250 ×10⁶ /M/s in series [9]; 800 M⁻¹ s⁻¹ in series [10]; 0.025 ×10⁶ /M/s in [11]; 0.21 ×10⁶ /M/s in series [12].
